# Test results reported in article PMC11099136, “Structure, mechanism, and evolution of the last step in vitamin C biosynthesis” (Nature Communications, 2024).
# T1: vGalDH (synthetic construct, UniProt Z9D058OTD2)
# T1 construct: SUMO cleaved for crystals; noncovalent FAD
# T1 sequence (Z9D058OTD2 110-619): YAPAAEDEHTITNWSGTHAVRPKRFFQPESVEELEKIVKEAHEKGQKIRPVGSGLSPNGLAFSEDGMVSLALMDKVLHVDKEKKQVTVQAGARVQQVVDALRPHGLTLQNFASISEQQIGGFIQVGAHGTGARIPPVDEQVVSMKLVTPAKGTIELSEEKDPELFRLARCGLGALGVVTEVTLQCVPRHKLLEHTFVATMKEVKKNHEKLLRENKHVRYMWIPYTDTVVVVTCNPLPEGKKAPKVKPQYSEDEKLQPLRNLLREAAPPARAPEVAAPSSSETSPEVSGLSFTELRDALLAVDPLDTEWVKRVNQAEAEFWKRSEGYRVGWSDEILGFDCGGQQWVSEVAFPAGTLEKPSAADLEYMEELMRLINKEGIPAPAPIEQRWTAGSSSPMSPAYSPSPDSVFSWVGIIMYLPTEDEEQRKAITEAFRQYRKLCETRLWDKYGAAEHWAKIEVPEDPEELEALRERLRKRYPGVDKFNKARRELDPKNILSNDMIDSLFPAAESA
# How the values were obtained:
# vGalDH = molecular target: T1, vGalDH; experiment: cytochrome c reduction at […] nm, Michaelis-Menten fit; assay type: biochemical; conditions: 50 μM equine cytochrome c, 50 mM potassium phosphate pH 8, 25 °C
# [1] = substrate: O=C1O[C@H]([C@@H](O)CO)[C@H](O)[C@@H]1O; experiment: oxygen consumption (Oxygraph), Michaelis-Menten fit; assay type: biochemical, synthetic construct; conditions: oxygen as co-substrate, 50 mM potassium phosphate pH 8, 25 °C
# From the text: (§1) oxygen consumption (Oxygraph), Michaelis-Menten fit on mGULO
# [2] = substrate: O=C1O[C@H](CO)[C@@H](O)[C@@H]1O; experiment: as above; assay type: biochemical, synthetic construct; conditions: oxygen as co-substrate, 50 mM potassium phosphate pH 8, 25 °C
# From the text: as §1
# [3] = substrate: O=C1O[C@H]([C@@H](O)CO)[C@@H](O)[C@@H]1O; experiment: as above; assay type: biochemical, synthetic construct; conditions: oxygen as co-substrate, 50 mM potassium phosphate pH 8, 25 °C
# From the text: as §1
# [4] = substrate: O=C1O[C@H]([C@@H](O)CO)[C@H](O)[C@@H]1O; experiment: as above; assay type: biochemical, synthetic construct; conditions: oxygen as co-substrate, 50 mM potassium phosphate pH 8, 25 °C; remark: listed apart in the source
# [5] = substrate: O=C1O[C@H](CO)[C@@H](O)[C@@H]1O; experiment: as above; assay type: biochemical, synthetic construct; conditions: oxygen as co-substrate, 50 mM potassium phosphate pH 8, 25 °C; remark: listed apart in the source
# [6] = substrate: O=C1O[C@H]([C@@H](O)CO)[C@@H](O)[C@@H]1O; experiment: as above; assay type: biochemical, synthetic construct; conditions: oxygen as co-substrate, 50 mM potassium phosphate pH 8, 25 °C; remark: listed apart in the source
# [7] = substrate: O=C1O[C@H]([C@@H](O)CO)[C@H](O)[C@@H]1O; experiment: as above; assay type: biochemical, synthetic construct; conditions: oxygen as co-substrate, 50 mM potassium phosphate pH 8, 25 °C; remark: listed apart in the source
# Experimental: (§2) oxygen consumption (Oxygraph), Michaelis-Menten fit on tGULO | KM values in the sub-millimolar range were measured for mGULO and tGULO | also L-galactono-1,4-lactone (i.e.: GalDH substrate; Fig. 1A) and D-arabino-1,4-lactone (ALO substrate) are effectively oxidized
# [8] = substrate: O=C1O[C@H](CO)[C@@H](O)[C@@H]1O; experiment: as above; assay type: biochemical, synthetic construct; conditions: oxygen as co-substrate, 50 mM potassium phosphate pH 8, 25 °C; remark: listed apart in the source
# Experimental: as §2
# [9] = substrate: O=C1O[C@H]([C@@H](O)CO)[C@@H](O)[C@@H]1O; experiment: as above; assay type: biochemical, synthetic construct; conditions: oxygen as co-substrate, 50 mM potassium phosphate pH 8, 25 °C; remark: listed apart in the source
# Experimental: as §2
# [10] = substrate: O=C1O[C@H]([C@@H](O)CO)[C@H](O)[C@@H]1O; experiment: as above; assay type: biochemical, synthetic construct; conditions: oxygen as co-substrate, 50 mM potassium phosphate pH 8, 25 °C; remark: listed apart in the source
# From the text: (§3) oxygen consumption (Oxygraph), Michaelis-Menten fit on cGULO
# [11] = substrate: O=C1O[C@H](CO)[C@@H](O)[C@@H]1O; experiment: as above; assay type: biochemical, synthetic construct; conditions: oxygen as co-substrate, 50 mM potassium phosphate pH 8, 25 °C; remark: listed apart in the source
# From the text: as §3
# [12] = substrate: O=C1O[C@H]([C@@H](O)CO)[C@@H](O)[C@@H]1O; experiment: as above; assay type: biochemical, synthetic construct; conditions: oxygen as co-substrate, 50 mM potassium phosphate pH 8, 25 °C; remark: listed apart in the source
# From the text: as §3
molecule,measurement,setting,value
"O=C1O[C@H]([C@@H](O)CO)[C@@H](O)[C@@H]1O [L-galactono-1,4-lactone]",Km,vGalDH,16.6 ± 2.6 µM
"O=C1O[C@H]([C@@H](O)CO)[C@H](O)[C@@H]1O [L-gulono-1,4-lactone]",Km,vGalDH,2100 ± 300 µM
"O=C1O[C@H](CO)[C@@H](O)[C@@H]1O [D-arabino-1,4-lactone]",Km,vGalDH,1100 ± 100 µM
"mGULO (synthetic construct) (protein, His-SUMO fusion from pBAD in E. coli (tag kept in stopped-flow); membrane-associated, purified in reduced Triton X-100; covalent FAD) MVHGHKGVKFQNWAKTYGCSPEMYFQPTSVEEIREVLDLARQQNKRVKVVGGGHSPSDIACTDGFMIHMGKMNRILKVDKEKKQVTVEAGILLADLNVELSKHGLALSNLGAVSDVTAAGVIGTGTHNTGIKHGILATQVVALTLLTASGTILECSESSNAELFQAARVHLGCLGVILTVTFQCVPQFHLQETSFPSTLKEVLDNLDSHLKKSEYFRFLWFPHSENVSVIYQDHTNKPPSSSANWFWDYAIGFYLLEFLLWISTFLPCLVPWINRFFFWLLFTGKVENSNLSYKIFNYECRFKQHVQDWAIPIEKTKEALLELKAMLESNPKVVAHYPVEVRFTRGDDILLSPCFQRDSCYMNIIMYRPYGKDVPRLDYWLAYETIMKKVGGRPHWAKAHTCTRKDFEKMYPAFQKFCAIREKLDPTGMFLNAYLEKVFY",Km,[1],800 ± 100 µM
same,kcat,[1],6.1 ± 0.1 s⁻¹
same,kcat/Km,[1],7600 M⁻¹ s⁻¹
same,Km,[2],3300 ± 400 µM
same,kcat,[2],0.5 ± 0.1 s⁻¹
same,kcat/Km,[2],150 M⁻¹ s⁻¹
same,Km,[3],1900 ± 200 µM
same,kcat,[3],4.2 ± 0.1 s⁻¹
same,kcat/Km,[3],2200 M⁻¹ s⁻¹
"jGULO (synthetic construct) (protein, His-SUMO fusion from pBAD in E. coli; membrane-associated, purified in reduced Triton X-100; covalent FAD) MVQGTEGYKFQNWAQTYSCQPELYFEPTSVEEIRQILELARQRSKRVKVVGCGHSPSDIACTDDYMIRMNKMNKILKVDKEKRQVTVEAGILLSDLNEELAKHGLALSNLGAVSDVTVAGVIGTGTHNTGIQHGILATQVVALTLMTASGEILECSESVNKEIFQAARLHLGALGVILTVTFQCEPAFRLHQQQFPSTLTEVLDNLDTHLKKSEYFRFLWFPHTDHVTVFYADRTDKPVQSTSSWFWDYAIGYYLLEFLLWISTFFPRLVPWINRFFFWLLYSAKVERVNRSDKVFNFECLFKQHVSDWAIPIEKTKAALLQLKEWLENNPDVRAHFPVEVRFVRADDILLSPCYQRDSCYINIIMYRPYGKDVPRERYWAAYEDIMKKVGGRPHWAKAHSCTRKDFEKMYPAFQKFCSIREKLDPSGMFLNTYLEKVFF",Km,[4],6900 ± 600 µM
same,kcat,[4],3.9 ± 1.3 s⁻¹
same,Km,[5],10700 ± 2500 µM
same,kcat,[5],2.9 ± 0.3 s⁻¹
same,Km,[6],7100 ± 800 µM
same,kcat,[6],8.0 ± 0.3 s⁻¹
"tGULO (synthetic construct) (protein, His-SUMO fusion from pBAD in E. coli; membrane-associated, purified in reduced Triton X-100; covalent FAD) MVQGHGGYKFQNWAQTYGCSPELYFQPTSVEEIKEILDLARQRSKRVKVVGGGHSPSDIACTDDFMIHMNKMNKILKVDKEKKQVTVEAGILLSDLNEELSKHGLALSNLGAVSDVAAAGVIGTGTHNTGIQHGILATQVVALTLMTASGEILECSESVNAELFQAARLHLGCLGVILTVTFQCVPAFHLQETQFPSTLKEVLDNLDSHLKKSEYFRFLWFPHTENVSVIYQDRTDKPPSSSANWFWDYAIGYYLLEFLLWISTFLPRLVPWINRFFFWLLYSGKVERVNLSYKVFNYECRFKQHVQDWAIPIEKTKEALLELKAWLESNPKVVAHFPVEVRFARGDDILLSPCYQRDSCYMNIIMYRPYGKDVPRQQYWLAYENIMKKVGGRPHWAKAHTCTRKDFEKMYPGFQKFCSIREKLDPTGMFLNTYLEKVFY",Km,[7],800 ± 200 µM
same,kcat,[7],7.3 ± 0.5 s⁻¹
same,Km,[8],9400 ± 900 µM
same,kcat,[8],2.9 ± 0.1 s⁻¹
same,Km,[9],5400 ± 1200 µM
same,kcat,[9],1.3 ± 0.1 s⁻¹
"cGULO (synthetic construct) (protein, His-SUMO fusion from pBAD in E. coli; membrane-associated, purified in reduced Triton X-100; covalent FAD) MATGMKGYKFTNWAKTYSCQPELYFEPTTTEEIRQILELARQHSKRVKVVGCGHSPSDIACTTDYMISMKKFNKVLEVDKEKCQVTVQAGILLKDLNEELPKHGMALSNLGAVSDITVAGVISTGTHGTGVNYGILATHVVELTLMTASGEILKCSREENKDIFLAALCGLGALGIILTVTIQCEPAFKLHQKQFPCTLDEVLDNLDTHLKSSEHFRFMWFPHTDHVVVFHANRTDKPVQSTSSWFWDYLVGYYLLEFLLWISTFFPSLVPWINRFFFWLLYSQPKERVDRSDKVFNFECLFKQYVTEWAIPREKTAAVLLELKDWLESNPDFHAHFPVEVRFVRADDIYLSPCYQRDSCYINIIMYRPYGKDVPREKYWAAYEDIMMKVGGRPHWAKAHKVTAKDFQKMYPKFEKFCSIREKLDPQGMFLNSYLERVFF",Km,[10],6100 ± 700 µM
same,kcat,[10],3.2 ± 0.1 s⁻¹
same,kcat/Km,[10],520 M⁻¹ s⁻¹
same,Km,[11],48600 ± 24000 µM
same,kcat,[11],0.6 ± 0.1 s⁻¹
same,kcat/Km,[11],12.3 M⁻¹ s⁻¹
same,Km,[12],11800 ± 1200 µM
same,kcat,[12],3.5 ± 0.3 s⁻¹
same,kcat/Km,[12],300 M⁻¹ s⁻¹
